The assay has as its target FLAG-tagged human importin-α7 (human) (UniProt O60684). Briefly: co-IP.

As to “nucleoprotein (NP) of 2009 pandemic H1N1 influenza A virus A/Hamburg/NY1580/09, parental (natural protein)”, the fold binding against importin-α1 amounted to 10 fold.

The values are drawn from article doi:10.1101/447979.
